From the supplement of paper PMC9170038 come the findings set out here.

The data set has as its system MS2 coat protein. The data set can be described thus: apparent KD of MS2 coat protein; designed switch direction (-1 OFF switch, 1 ON switch): -1; higher = weaker reporter binding. Summed up:
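Stalled E. coli RNA polymerase transcribed designed RNA switches on Illumina chips, which were then titrated with SNAP-549-labelled MS2 coat protein, doubling from 0.7 or 1.5 nM to 3 µM. Steps lasted from 0.8–1.5 h at the lowest concentration to 10–20 min at the highest. The apparent KD is each design's median over clusters of curve-fitted normalised fluorescence.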

The mark [1] stands for this setting: Eterna round: R95, input ligand: FMN 200 uM.
Setting [2] is: Eterna round: R95, input ligand: microRNA oligo, concentration not stated.
Where [3] appears, read: Eterna round: R95, input ligand: none.
Where [4] appears, read: input ligand: microRNA oligo, concentration not stated.

Take “CGGGAGGGACAAGCUGUUUGCACGUCUGGUAGUGAUGCAACAUGAGGAUCACCCAUGUAUAGGGUGUGAGAGGAUGG [JR_SV3TOV2_Sub050] (puzzle: Sensor v3, turn-off variant 2)”: the “apparent KD of MS2 coat protein” value came to 47.1 nM under setting [1], 89.6 nM under setting [2] and 107 nM under setting [3].
In the case of “CGGGCCGGCCUUCCGGCCGGCCCGACAUGAGGAUCACCCAUGUAGGAUAUCCCGGCUGCCGGCCGGGAGAAGGGCGUGCGUCCC [-49.5, -48.5 kcal, 14% A] (Eterna round: R96, puzzle: Exclusion NG 3)”, the “apparent KD of MS2 coat protein” value was determined as 39.8 nM (input ligand: FMN 200 uM), 27.6 nM under setting [4] and 33.5 nM (input ligand: none).
“CGGUCCCAUGUGAGGAUAUCGGAGCGAAAAUACUGCGAGAAGGUACAUGAGGAUCACCCAUGUCUCCUAUUGCC [Entiedxebe] (puzzle: Brourd's mod of Exclusion 4)”: under setting [2], the “apparent KD of MS2 coat protein” value was determined as 15.2 nM.
For “CGGUGCAGGCUGCGGUCCUACAUGAGGAUCACCCAUGUGGUCCGGUGGCGUGGGUCGCCGGACUUGGCUCGUCUUGU [salish99_S_TOV1_R5_015] (Eterna round: R97, puzzle: Sensor, turn-off variant 1)”, the “apparent KD of MS2 coat protein” value is, setting by setting: (input ligand: FMN 200 uM) 56.8 nM; (input ligand: none) 75.6 nM.
As for “CGGUGCUCGUGGAAACAUGAGGAUCACCCAUGUAGAGUUAGCGAGGAUAUCGGUAACACAUAUCACGAGAAGGCGCGAACCUGA [Ex NG3 #30] (Eterna round: R96, puzzle: Exclusion NG 3)”, the “apparent KD of MS2 coat protein” value amounted to 27.8 nM (input ligand: FMN 200 uM), 11.7 nM under setting [4] and 16.3 nM (input ligand: none).
In the case of “CGGUGCUCGUGGAAACAUGAGGAUCACCCAUGUUGAGUUAGCGAGGAUAUCGGUAACACAUGUCACGAGAAGGCGCGAACCAGA [Ex NG3 #32] (Eterna round: R96, puzzle: Exclusion NG 3)”, the “apparent KD of MS2 coat protein” value reads like this: (input ligand: FMN 200 uM) 18.7 nM; under setting [4], 9.96 nM; (input ligand: none) 14.9 nM.
As to “CGGUGCUGAGGAUAUACAUGAGGAUCACCCAUGUGUUCCAGCUAGGUGACUGGCAGAUGUAGAAGGCGGUACUG [JL-ex3-3.38 Brourd mod] (puzzle: Exclusion 3)”, the “apparent KD of MS2 coat protein” value under setting [1] is 72.2 nM, the “apparent KD of MS2 coat protein” value under setting [2] was 98.6 nM and the “apparent KD of MS2 coat protein” value under setting [3] was found to be 102 nM.
“CGGUGCUGAGGAUAUACAUGAGGAUCACCCAUGUGUUCUUGCUAGAAAACUGGCAGAUGUAGAAGGCGGUACUG [Mat - Exclusion 3 - Mod of JL D98] (puzzle: Exclusion 3)”: the “apparent KD of MS2 coat protein” value was 285 nM under setting [1], 35.4 nM under setting [2] and 36.6 nM under setting [3].
As for “CGGUGUAACAGAGGAUAUCAGCGCAACUGACGAUGAGAAGGCUGACAUGAGGAUCACCCAUGUGAUUUCUCAAUAUUAUACAUC [Prohibition 88 - Jieux - Exclusion NG 1] (Eterna round: R96, puzzle: Exclusion NG 1)”, the “apparent KD of MS2 coat protein” value is 371 nM (input ligand: FMN 200 uM), 72.3 nM under setting [4] and 100 nM (input ligand: none).
“CGUAGAUUAGGAUAUUGCUCGCUGGACAUGAGGAUCACCCAUGUGCGUGUCGUGCGAAGUCAAGAAGGAGUGUGUG [Eternabot (L2) Solution 40] (Eterna round: R97, puzzle: Exclusion 5)”: the “apparent KD of MS2 coat protein” value (input ligand: FMN 200 uM) stood at 35.6 nM and the “apparent KD of MS2 coat protein” value (input ligand: none) worked out at 18 nM.
As for “CGUAGCAAAGUGAGGAUAUCUAGAGCUUCGGCUCUAGAGAAGGCACAUGAGGAUCACCCAUGUGAUUAGCUACG [BmEx4/9-A1] (Eterna round: R97, puzzle: Brourd's mod of Exclusion 4)”, the “apparent KD of MS2 coat protein” value (input ligand: FMN 200 uM) was found to be 152 nM and the “apparent KD of MS2 coat protein” value (input ligand: none) was found to be 29.8 nM.
Consider “CGUAGUCUUCGGACUACGAACAUGAGGAUCACCCAUGUAAUGAGCAGAUCUUCAUGCAAGCUUUUUGCUCGUCUUAU [Sensor v3 - turn-off variant 1 - 43] (puzzle: Sensor v3, turn-off variant 1)”, for which the “apparent KD of MS2 coat protein” value runs as follows: under setting [1], 148 nM; under setting [2], 14.7 nM; under setting [3], 227 nM.
The matching figures for “CGUAUCUUUCACGUGAGUAGUGGGUGCAACAGGUGGGUUACAUGAGGAUCACCCAUGUCCUCACUUGCUCGUCUUAU [Grok-var2-05] (puzzle: Sensor v3, turn-off variant 2)”: 37.8 nM, 124 nM and 37.5 nM.
Turning to “CGUCCACAUGAGGAUCACCCAUGUGAGGAUAUCUAGCACGCAGUAGUACUGUGACAUCGGAGAAGGCGUAGGGU [Eternabot (L2) Solution 96] (Eterna round: R97, puzzle: Exclusion 1)”, the “apparent KD of MS2 coat protein” value is 32.2 nM (input ligand: FMN 200 uM) and 21.2 nM (input ligand: none).
“CGUCCGGCUUCCCUUCAAAACAUGAGGAUCACCCAUGUUUUUGUUUUUGCGAGCUUUUUGCUUUUUGCUCGUCUUGU [Even Better Attempt] (puzzle: Sensor v3, turn-off variant 1)”: the “apparent KD of MS2 coat protein” value is 20.1 nM under setting [1], 12.5 nM under setting [2] and 19.9 nM under setting [3].
“CGUCCUCUAGUCAGGAUAUUGUCUCGGAUACGAAACAAGAAGGGACAUGAGGAUCACCCAUGUAAUGAGGACGA [Malc #30 mod 15] (puzzle: Brourd's mod of Exclusion 4)”: the “apparent KD of MS2 coat protein” value amounted to 20.1 nM under setting [1], 33.1 nM under setting [2] and 33.8 nM under setting [3].
In the case of “CGUCCUGUAGUCAGGAUAUUGUCUCGGAUACGAAACAAGAAGGGACAUGAGGAUCACCCAUGUAAUCAGGACGA [Malc #30 mod 13] (puzzle: Brourd's mod of Exclusion 4)”, the “apparent KD of MS2 coat protein” value was found to be 19.5 nM under setting [1], 36.5 nM under setting [2] and 36.5 nM under setting [3].
As to “CGUCGAAAUGUAGGAUAUCUGCACGAUUAGUGCAGAGAAGGACAUGAGGAUCACCCAUGUAGAUCACGACGAAUUAAUUUAAUU [ENG1/5-C1] (Eterna round: R96, puzzle: Exclusion NG 1)”, the “apparent KD of MS2 coat protein” value under setting [4] is 48.4 nM.
With “CGUCUACCAAAACCGAACAACAUGAGGAUCACCCAUGUCACUCCGCCUUAAACCUACGGAGUAAAGUGGGCGCAAAA [Vesocegeer] (Eterna round: R96, puzzle: Sensor v2, turn-off variant)”, the “apparent KD of MS2 coat protein” value by setting is: (input ligand: FMN 200 uM) 32.2 nM; under setting [4], 28.5 nM; (input ligand: none) 33.2 nM.
For “CGUCUGUAAGGAUAUGGUUGCAUCAACAUGAGGAUCACCCAUGUAACGUGGGACUAGUGAUUAGAAGGUACGAACG [EX5 #60] (Eterna round: R97, puzzle: Exclusion 5)”, the “apparent KD of MS2 coat protein” value is, setting by setting: (input ligand: FMN 200 uM) 93.8 nM; (input ligand: none) 118 nM.
On to “CGUCUGUAAGGAUAUGGUUGUAUCGACAUGAGGAUCACCCAUGUGACGUGGGACUAGUGAUUAGAAGGUACGAACG [EX5 #63] (Eterna round: R97, puzzle: Exclusion 5)”, for which the “apparent KD of MS2 coat protein” value reads like this: (input ligand: FMN 200 uM) 876 nM; (input ligand: none) 672 nM.
In the same order, the values of “CGUCUGUCAGGAUAUACUUACGUAGACAUGAGGAUCACCCAUGUGACGUGGGACUGGUGAGUAGAAGGGACGAACA [EX5 #75] (Eterna round: R97, puzzle: Exclusion 5)” are 28 nM and 30.6 nM.
For the sequence “CGUGACUGAGGAUAUCUAUGAUGUCACAUGAGGAUCACCCAUGUCCAGCGAAAGCUGGAGGGAGAAGGCAGUCACG [Fiskers Ex 5 - 31] (puzzle: Exclusion 5)”, the “apparent KD of MS2 coat protein” value came out at 34.5 nM under setting [1], 122 nM under setting [2] and 115 nM under setting [3].
As to “CGUGCGUAUGUGAGGAUAUGCUGGUCCUUGGAUCGGCAGAAGGCACAUGAGGAUCACCCAUGUGGUGUCGUACA [salish99_Bmod_ex4_088] (puzzle: Brourd's mod of Exclusion 4)”, the “apparent KD of MS2 coat protein” value under setting [2] was 215 nM.
For “CGUGCGUAUGUGAGGAUAUGCUGGUCCUUGGAUCGGCAGAAGGCACAUGAGGAUCACCCAUGUGGUGUCGUUCA [salish99_Bmod_ex4_091] (puzzle: Brourd's mod of Exclusion 4)”, the “apparent KD of MS2 coat protein” value reads like this: under setting [1], 31.3 nM; under setting [2], 108 nM; under setting [3], 173 nM.
Consider “CGUGCGUAUGUGAGGAUAUGCUGGUCCUUGGCUCGGCAGAAGGCACAUGAGGAUCACCCAUGUGGUGUCGUACU [salish99_Bmod_ex4_069] (Eterna round: R96, puzzle: Brourd's mod of Exclusion 4)”, for which the “apparent KD of MS2 coat protein” value reads like this: (input ligand: FMN 200 uM) 291 nM; under setting [4], 61.1 nM; (input ligand: none) 67.5 nM.
Consider “CGUGCGUAUGUGAGGAUAUGCUGGUCCUUGGCUCGGCAGAAGGCACAUGAGGAUCACCCAUGUGGUGUCGUACU [salish99_Bmod_ex4_069] (puzzle: Brourd's mod of Exclusion 4)”, for which the “apparent KD of MS2 coat protein” value under setting [2] came to 50.2 nM.
In the case of “CGUGGACAUAACAAGCUUUACAUGAGGAUCACCCAUGUGAUCAUGCUCGUCUUAUGGUCCACGAAUUAAUUAAUUAA [Stov1/6-C1] (Eterna round: R97, puzzle: Sensor, turn-off variant 1)”, the “apparent KD of MS2 coat protein” value (input ligand: FMN 200 uM) is 19.5 nM and the “apparent KD of MS2 coat protein” value (input ligand: none) came to 19.9 nM.
The matching figures for “CGUGUACGAGGAUAUAGAUUAGGUGACAUGAGGAUCACCCAUGUGAUCAAUCUAUUUGGUUUAGAAGGUGUACAUG [JR_Ex5_Sub052] (Eterna round: R97, puzzle: Exclusion 5)”: 15 nM and 14 nM.
In the same order, the values of “CGUUCGCGAGGAUAUGCAUUCGAGUCCACUACGUGUCUGGGACUUGAGGAUCACCCAAGUAGAAGGCGCCUAAA [salish99_ex2_r4_652] (Eterna round: R97, puzzle: Exclusion 2)” are 514 nM and 577 nM.
